In the Immune Epitope Database (IEDB) one finds IC50 data, which are given here for 23 sequences.

One assay has as its target HLA-A*02:02. Briefly: IEDB peptide-MHC binding, purified MHC/competitive/radioactivity; ≥ and ≤ were set here for values at or beyond the usual limits of such assays.
A further assay has as its target HLA-A*02:03. Described as above.
Assay [1] has as its target HLA-A*68:02. The assay is described as above.
Assay [2] has as its target HLA-A*02:01. Description: IEDB peptide-MHC binding, cellular MHC/competitive/fluorescence; ≥ and ≤ were set here for values at or beyond the usual limits of such assays.
Assay [3] deals with HLA-A*02:06. The description is as above.
Assay [4] has as its target HLA-A*02:01. Description: IEDB peptide-MHC binding, purified MHC/competitive/radioactivity; ≥ and ≤ were set here for values at or beyond the usual limits of such assays.
The target in assay [5] is HLA-A*02:06. The description is as above. The following applies: source organism: Vaccinia virus WR.
The target of assay [6] is HLA-A*68:02. Description: IEDB peptide-MHC binding, cellular MHC/competitive/fluorescence; ≥ and ≤ were set here for values at or beyond the usual limits of such assays. Conditions: source organism: Vaccinia virus WR.
[7] abbreviates: source organism: Vaccinia virus WR.
Setting [8] is: source organism: Influenza A virus.
Setting [9] is: source organism: Mammarenavirus whitewaterense.
[10] abbreviates: source organism: Hepacivirus hominis.

In the case of FTSYKRFVT, the IC50 (in general, the point on the concentration scale where inhibition reaches its midpoint) with HLA-A*02:02 (setting [7]) is 2330 nM; with HLA-A*02:03 (setting [7]) it was 3380 nM; with HLA-A*68:02 [1] (setting [7]), 452 nM; with HLA-A*02:01 [2] (setting [7]) it was at least 70000 nM; with HLA-A*02:06 [3] (setting [7]) it was 12400 nM.
As to GLILFVLAL, the IC50 in the assay with HLA-A*02:01 [4] (setting [7]) was determined as 175 nM; in the assay with HLA-A*02:02 (setting [7]), 129 nM; in the assay with HLA-A*02:03 (setting [7]), 452 nM; with HLA-A*68:02 [1] (setting [7]) it was 4340 nM; with HLA-A*02:06 [3] (setting [7]), 7810 nM.
GTSGVESAV: the IC50 with HLA-A*02:02 (setting [8]) stood at 1100 nM; with HLA-A*02:03 (setting [8]) it was 3010 nM; with HLA-A*68:02 [1] (setting [8]), 683 nM; with HLA-A*02:01 [2] (setting [8]) it was 10800 nM; in the assay with HLA-A*02:06 [3] (setting [8]), 11400 nM.
In the case of HMYRGGNGNT, the IC50 was 2020 nM with HLA-A*02:02 (setting [7]); 423 nM with HLA-A*02:03 (setting [7]); 3260 nM with HLA-A*68:02 [1] (setting [7]); 19300 nM in the assay with HLA-A*02:01 [2] (setting [7]); 9870 nM with HLA-A*02:06 [3] (setting [7]).
Turning to IADIRDKYM, the half-inhibitory concentration (IC50) is 63 nM with HLA-A*02:02 (setting [7]); 230 nM with HLA-A*02:03 (setting [7]); 3110 nM with HLA-A*68:02 [1] (setting [7]); 11400 nM in the assay with HLA-A*02:01 [2] (setting [7]); 57800 nM in the assay with HLA-A*02:06 [3] (setting [7]).
On the same counts, the results for IAVANCVRNL are 57 nM, 467 nM, 465 nM, 13600 nM and 9110 nM.
For IQKDINITHT, the half-maximal inhibitory concentration (IC50) came out at 1360 nM with HLA-A*02:02 (setting [7]); 340 nM with HLA-A*02:03 (setting [7]); 4990 nM with HLA-A*68:02 [1] (setting [7]); 37400 nM with HLA-A*02:01 [2] (setting [7]); 61700 nM with HLA-A*02:06 [3] (setting [7]).
Turning to ITHTNITTLL, the IC50 with HLA-A*02:02 (setting [7]) worked out at 1680 nM; in the assay with HLA-A*02:03 (setting [7]) it was 101 nM; with HLA-A*68:02 [1] (setting [7]) it was 311 nM; with HLA-A*02:01 [2] (setting [7]), 11900 nM; in the assay with HLA-A*02:06 [3] (setting [7]), 14800 nM.
The like results for IVNNFITKEI were, in that order, 1470 nM, 192 nM, 1320 nM, 13700 nM and 14200 nM.
In the case of LDFAKVASV, the IC50 with HLA-A*02:01 [4] (setting [9]) was found to be 4740 nM; with HLA-A*02:02 (setting [9]), 61 nM; with HLA-A*02:03 (setting [9]), 453 nM; in the assay with HLA-A*68:02 [1] (setting [9]), 296 nM; with HLA-A*02:06 [3] (setting [9]) it was 10600 nM.
In the case of LIAGIILLI, the IC50 with HLA-A*02:01 [4] (setting [7]) worked out at 109 nM; in the assay with HLA-A*02:02 (setting [7]) it was 0.17 nM; with HLA-A*02:03 (setting [7]), 39 nM; with HLA-A*68:02 [1] (setting [7]), 20 nM; with HLA-A*02:06 [3] (setting [7]), 8220 nM.
Turning to LLGLILFVL, the IC50 in the assay with HLA-A*02:01 [4] (setting [7]) is 724 nM; with HLA-A*02:02 (setting [7]), 266 nM; with HLA-A*02:03 (setting [7]), 1860 nM; with HLA-A*68:02 [1] (setting [7]), 906 nM; with HLA-A*02:06 [3] (setting [7]) it was 8130 nM.
In the case of LLNETAKVI, the IC50 with HLA-A*02:01 [4] (setting [7]) is 406 nM; with HLA-A*02:02 (setting [7]), 319 nM; with HLA-A*02:03 (setting [7]), 71 nM; with HLA-A*68:02 [1] (setting [7]) it was 881 nM; in the assay with HLA-A*02:06 [3] (setting [7]), 15400 nM.
On the same counts, the results for MAEFEDQLV are 2150 nM, 165 nM, 641 nM, 674 nM and 5510 nM.
On the same counts, the results for MLKLFTHDIM are 1380 nM, 85 nM, 93 nM, 2000 nM and 20300 nM.
Take NTNQGNILM: the IC50 with HLA-A*02:01 [4] (setting [7]) was found to be 4580 nM; with HLA-A*02:02 (setting [7]) it was 1700 nM; with HLA-A*02:03 (setting [7]), 1150 nM; with HLA-A*68:02 [1] (setting [7]) it was 664 nM; with HLA-A*02:06 [3] (setting [7]), 5940 nM.
As for QLVWMACHSAA, the IC50 is 11400 nM with HLA-A*02:01 [2] (setting [8]) and at least 70000 nM in the assay with HLA-A*02:06 [3] (setting [8]).
Take SLCPTKKLV: the IC50 with HLA-A*02:01 [4] (setting [7]) came to 2660 nM; with HLA-A*02:02 (setting [7]), 3160 nM; with HLA-A*02:03 (setting [7]) it was 2660 nM; with HLA-A*68:02 [1] (setting [7]) it was 1040 nM; with HLA-A*02:06 [3] (setting [7]), 11900 nM.
As to TIAVSVYGAI, the IC50 in the assay with HLA-A*02:01 [4] (setting [7]) turned out to be 2560 nM; in the assay with HLA-A*02:02 (setting [7]) it was 1550 nM; with HLA-A*02:03 (setting [7]) it was 582 nM; in the assay with HLA-A*68:02 [1] (setting [7]), 618 nM; with HLA-A*02:06 [3] (setting [7]) it was 5390 nM.
In the case of TLFYCDERDA, the IC50 with HLA-A*02:01 [4] (setting [7]) was 238 nM; with HLA-A*02:02 (setting [7]) it was 271 nM; in the assay with HLA-A*02:03 (setting [7]), 2140 nM; in the assay with HLA-A*68:02 [1] (setting [7]) it was 4920 nM; with HLA-A*02:06 [3] (setting [7]), 19500 nM.
As for VLIVMLLFA, the IC50 was found to be 2360 nM with HLA-A*02:01 [4] (setting [10]); 1620 nM with HLA-A*02:02 (setting [10]); 435 nM with HLA-A*02:03 (setting [10]); 4550 nM in the assay with HLA-A*68:02 [1] (setting [10]); 8420 nM in the assay with HLA-A*02:06 [3] (setting [10]).
On to YIEDELRRA, for which the IC50 with HLA-A*02:02 (setting [7]) was 1760 nM; with HLA-A*02:03 (setting [7]), 259 nM; in the assay with HLA-A*02:06 [5], 1230 nM; with HLA-A*02:01 [2] (setting [7]), 5410 nM; in the assay with HLA-A*68:02 [6], at least 70000 nM.
For YVEHDPRLV, the IC50 was 4740 nM with HLA-A*02:01 [4] (setting [7]); 1180 nM with HLA-A*02:02 (setting [7]); 711 nM with HLA-A*02:03 (setting [7]); 1930 nM in the assay with HLA-A*68:02 [1] (setting [7]); 22600 nM with HLA-A*02:06 [3] (setting [7]).
